Experimental data as given in patent publication US20250051426A1 (IGALPHAN, published 2025).

T1: E. coli wild-type SHMT (GST fusion protein) (E. coli, UniProt P0A825 1-417)
T1 construct: Overexpressed in E. coli as a GST fusion, purified and immobilized on the ELISA plate at 2 ug/ml; not shown: Glutathione-S-transferase (GST) fusion partner
T1 sequence: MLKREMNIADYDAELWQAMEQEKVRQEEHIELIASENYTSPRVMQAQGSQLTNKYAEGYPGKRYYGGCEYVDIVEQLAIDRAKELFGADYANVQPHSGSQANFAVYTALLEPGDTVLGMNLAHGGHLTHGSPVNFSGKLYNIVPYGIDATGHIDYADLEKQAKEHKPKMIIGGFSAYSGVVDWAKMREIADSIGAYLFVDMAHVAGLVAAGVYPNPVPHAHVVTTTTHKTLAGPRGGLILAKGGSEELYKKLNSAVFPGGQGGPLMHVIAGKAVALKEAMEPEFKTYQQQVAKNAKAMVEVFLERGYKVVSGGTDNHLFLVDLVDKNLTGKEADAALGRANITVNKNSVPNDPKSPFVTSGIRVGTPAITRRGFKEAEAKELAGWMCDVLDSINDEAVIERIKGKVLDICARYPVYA

T2: E. coli SHMT (25-45) (E. coli)
T2 construct: Expressed as a GST fusion; GST was cleaved off and removed before crystallization
T2 peptide: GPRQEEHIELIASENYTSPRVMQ

T3: C. difficile iPGM (486-509) (C. difficile)
T3 construct: Expressed as a GST fusion; GST was cleaved off and removed before crystallization
T3 peptide: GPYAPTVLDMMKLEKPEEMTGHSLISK

T4: E. coli iPGM (E. coli, UniProt P37689 1-514, limits assumed)
T4 sequence (looked up): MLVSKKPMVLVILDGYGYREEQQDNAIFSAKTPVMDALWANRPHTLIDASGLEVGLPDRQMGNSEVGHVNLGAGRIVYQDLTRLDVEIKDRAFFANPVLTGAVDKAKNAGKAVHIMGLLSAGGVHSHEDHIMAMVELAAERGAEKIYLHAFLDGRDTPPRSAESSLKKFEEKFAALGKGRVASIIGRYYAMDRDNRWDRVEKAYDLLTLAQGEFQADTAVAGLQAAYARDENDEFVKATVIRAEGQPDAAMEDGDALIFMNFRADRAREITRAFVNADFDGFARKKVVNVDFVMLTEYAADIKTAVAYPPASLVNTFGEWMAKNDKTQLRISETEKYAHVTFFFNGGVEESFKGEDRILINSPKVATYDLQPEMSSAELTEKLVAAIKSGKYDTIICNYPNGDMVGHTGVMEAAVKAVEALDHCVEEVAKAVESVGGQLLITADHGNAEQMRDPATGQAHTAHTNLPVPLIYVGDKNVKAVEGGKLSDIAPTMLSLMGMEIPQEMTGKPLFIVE


How the values were obtained:
[1] = biological target: T1, E. coli wild-type SHMT (GST fusion …); assay: ELISA on immobilized GST fusion protein
E. coli SHMT (25-45) = biological target: T2, E. coli SHMT (25-45); assay: X-ray crystal structure of the Fab-peptide complex
[2] = biological target: T3, C. difficile iPGM (486-509); assay: X-ray crystal structure of the Fab-peptide complex
E. coli iPGM = biological target: T4, E. coli iPGM; assay: Western blot

Row | Binder | binding result [1] | further results
1 | RS_H007_L001 (antibody, V domains shown, Mainly dimers) VH: EVQLQQSGSELVKSGASVKLSCTVSGFNFTNYYIHWVRQRTEQGLEWIGRIDPENNQTTYAPKFQGKATMTADTSSNTAYLQLTSLTSEDTAVYYCARSTVLDYWGHGTTLTVSS VL: DVLMTQSPASLSVSLGDRATISCRASQSIVHTNGNTYLEWYLQKPGQSPKLLIYKVSNRFSGVPDRFSGSGSGTDFILKISRVEAEDLGVYYCFQGSHVPPTFGGGTKLEVK | binds | –
2 | W27G2 antibody (antibody, V domains shown, Mouse IgA produced by a hybridoma; W27G2CHT is the crude hydroxyapatite-purified preparation; W27G2GF is the multimer fraction after gel filtration; also called hybridoma-derived W27G2 antibody; W27G2CHT) VH: EVQLQQSGSELVKSGASVKLSCTVSGFNFTDYYIHWVRQRTEQGLEWIGRIDPENDETTYAPKFQGKATMTADTSSNTAYLQLTSLTSEDTAVYYCARSTVLDYWGHGTTLTVSS VL: DVLMTQTPLSLPVSLGDQASISCRASQSIVHTNGNTYLEWYLQKPGQSPKLLIYKVSNRFSGVPDRFSGSGSGTDFILKISRVEAEDLGVYYCFQGSHVPPTFGGGTKLEVKR | binds | –
3 | RS_H000_L000GR Fab (Fab, V domains shown, Fab made by papain digestion of the W27 recombinant IgG expressed in CHO cells; also called IgG W27 Fab) VH: EVQLQQSGSELVKSGASVKLSCTVSGFNFTDYYIHWVRQRTEQGLEWIGRIDPENDETTYAPKFQGKATMTADTSSNTAYLQLTSLTSEDTAVYYCARSTVLDYWGHGTTLTVSS VL: DVLMTQTPLSLPVSLGDQASISCRASQSIVHTNGNTYLEWYLQKPGQSPKLLIYKVSNRFSGVPDRFSGSGSGTDFILKISRVEAEDLGVYYCFQGSHVPPTFGGGTKLEVK | – | binding result (E. coli SHMT (25-45)): binds; binding result [2]: binds
4 | W27 antibody (antibody, V domains shown, IgA; also called W27IgA antibody) VH: EVQLQQSGSELVKSGASVKLSCTVSGFNFTDYYIHWVRQRTEQGLEWIGRIDPENDETTYAPKFQGKATMTADTSSNTAYLQLTSLTSEDTAVYYCARSTVLDYWGHGTTLTVSS VL: DVLMTQTPLSLPVSLGDQASISCRASQSIVHTNGNTYLEWYLQKPGQSPKLLIYKVSNRFSGVPDRFSGSGSGTDFILKISRVEAEDLGVYYCFQGSHVPPTFGGGTKLEVK | – | binding result (E. coli iPGM): no binding
5 | RS_H007_L005 (antibody, V domains shown, Mainly dimers) VH: EVQLQQSGSELVKSGASVKLSCTVSGFNFTNYYIHWVRQRTEQGLEWIGRIDPENNQTTYAPKFQGKATMTADTSSNTAYLQLTSLTSEDTAVYYCARSTVLDYWGHGTTLTVSS VL: DVLMTQSPASLSVSLGDRATISCRSSQSIVHTNGNTYLEWYLQKPGQSPKLLIYKVSNRFSGVPDRFSGSGSGTDFILKISRVEAEDLGVYYCFQGSHVPPTFGGGTKLEVK | binds | –
6 | RS_H000_L005 (antibody, V domains shown, Mainly dimers) VH: EVQLQQSGSELVKSGASVKLSCTVSGFNFTDYYIHWVRQRTEQGLEWIGRIDPENDETTYAPKFQGKATMTADTSSNTAYLQLTSLTSEDTAVYYCARSTVLDYWGHGTTLTVSS VL: DVLMTQSPASLSVSLGDRATISCRSSQSIVHTNGNTYLEWYLQKPGQSPKLLIYKVSNRFSGVPDRFSGSGSGTDFILKISRVEAEDLGVYYCFQGSHVPPTFGGGTKLEVK | binds | –
7 | RS_H007_L004 (antibody, V domains shown, Mainly dimers) VH: EVQLQQSGSELVKSGASVKLSCTVSGFNFTNYYIHWVRQRTEQGLEWIGRIDPENNQTTYAPKFQGKATMTADTSSNTAYLQLTSLTSEDTAVYYCARSTVLDYWGHGTTLTVSS VL: DVLMTQSPASMSVSLGDRATISCRSSQSIVHTNGNTYLEWYLQKPGQSPKLLIYKVSNRFSGVPDRFSGSGSGTDFILKISRVEAEDLGVYYCFQGSHVPPTFGGGTKLEVK | binds | –
8 | RS_H007_L002 (antibody, V domains shown, Mainly dimers) VH: EVQLQQSGSELVKSGASVKLSCTVSGFNFTNYYIHWVRQRTEQGLEWIGRIDPENNQTTYAPKFQGKATMTADTSSNTAYLQLTSLTSEDTAVYYCARSTVLDYWGHGTTLTVSS VL: DVLMTQSPASLSVSLGDRVTISCRASQSIVHTNGNTYLEWYLQKPGQSPKLLIYKVSNRFSGVPDRFSGSGSGTDFILKISRVEAEDLGVYYCFQGSHVPPTFGGGTKLEVK | binds | –
9 | RS_H000_L001 (antibody, V domains shown, Mainly dimers by non-reduced SDS-PAGE) VH: EVQLQQSGSELVKSGASVKLSCTVSGFNFTDYYIHWVRQRTEQGLEWIGRIDPENDETTYAPKFQGKATMTADTSSNTAYLQLTSLTSEDTAVYYCARSTVLDYWGHGTTLTVSS VL: DVLMTQSPASLSVSLGDRATISCRASQSIVHTNGNTYLEWYLQKPGQSPKLLIYKVSNRFSGVPDRFSGSGSGTDFILKISRVEAEDLGVYYCFQGSHVPPTFGGGTKLEVK | binds | –
